Test results taken from patent publication US20140113348A1.

Target: meditope-enabled trastuzumab Fab fragment
Experiment: SPR; meditope alone on the Fab fragment, not IgG

Chain of meditope-enabled trastuzumab Fab fragment (chain, as listed by the source limits assumed, chain 1 of 2): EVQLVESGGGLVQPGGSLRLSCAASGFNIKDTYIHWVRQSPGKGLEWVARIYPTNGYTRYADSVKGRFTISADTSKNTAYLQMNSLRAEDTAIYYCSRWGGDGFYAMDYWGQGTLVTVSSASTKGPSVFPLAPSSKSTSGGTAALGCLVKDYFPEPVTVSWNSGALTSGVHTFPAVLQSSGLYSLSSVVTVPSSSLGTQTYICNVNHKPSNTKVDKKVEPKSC
Chain of meditope-enabled trastuzumab Fab fragment (chain, as listed by the source limits assumed, chain 2 of 2): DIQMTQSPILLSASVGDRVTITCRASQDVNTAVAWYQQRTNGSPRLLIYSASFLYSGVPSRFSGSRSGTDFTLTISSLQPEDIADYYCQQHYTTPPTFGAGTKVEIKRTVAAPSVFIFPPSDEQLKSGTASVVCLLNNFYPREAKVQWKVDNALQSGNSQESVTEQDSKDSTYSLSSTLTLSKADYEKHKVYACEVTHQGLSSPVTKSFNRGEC

Q: For CQFDLSTRRLKC (modifications not checked) [cQFD meditope (cyclic …)], which Kd is on record?
A: 1000 nM
